Patent US20140161804A1 (AbbVie / Abbott, published 2014)
Numbering of substitutions follows the chain as printed.

B1: hMAK199-1-h10F7-M10.8 DVD-Ig (bispecific antibody, human IgG1, kappa, L234A L235A)
heavy: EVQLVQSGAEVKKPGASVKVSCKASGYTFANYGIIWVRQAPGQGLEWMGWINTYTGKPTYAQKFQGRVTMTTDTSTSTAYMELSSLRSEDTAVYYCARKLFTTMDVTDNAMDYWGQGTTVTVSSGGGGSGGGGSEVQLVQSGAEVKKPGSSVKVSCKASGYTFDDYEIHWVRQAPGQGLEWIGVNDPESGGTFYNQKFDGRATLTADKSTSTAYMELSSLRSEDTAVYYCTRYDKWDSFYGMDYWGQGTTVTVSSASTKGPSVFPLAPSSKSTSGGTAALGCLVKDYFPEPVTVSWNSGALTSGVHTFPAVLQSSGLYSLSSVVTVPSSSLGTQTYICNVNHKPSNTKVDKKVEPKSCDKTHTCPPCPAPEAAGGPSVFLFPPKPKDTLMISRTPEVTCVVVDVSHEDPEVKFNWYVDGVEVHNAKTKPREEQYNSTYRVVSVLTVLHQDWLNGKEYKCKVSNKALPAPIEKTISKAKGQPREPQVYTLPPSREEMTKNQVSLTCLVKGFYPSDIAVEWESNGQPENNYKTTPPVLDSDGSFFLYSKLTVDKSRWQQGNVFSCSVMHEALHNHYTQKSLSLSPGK
light: DIQMTQSPSSLSASVGDRVTITCRASQDISQYLNWYQQKPGKAPKLLIYYTSRLQSGVPSRFSGSGSGTDFTLTISSLQPEDFATYFCQQGNTWPPTFGQGTKLEIKRGGSGGGGSGDIQMTQSPSSLSASVGDRVTITCSASSGSISYIDWFQQKPGKAPKRLIYATFELASGVPSRFSGSGSGTDFTLTISSLQPEDFATYYCHQLGSYPDTFGQGTKLEIKRTVAAPSVFIFPPSDEQLKSGTASVVCLLNNFYPREAKVQWKVDNALQSGNSQESVTEQDSKDSTYSLSSTLTLSKADYEKHKVYACEVTHQGLSSPVTKSFNRGEC
notes: DVD-Ig; IgG1 234,235 mut, kappa; GS10 linkers; also called HMAK199-1-GS10-H10F7-M10 DVD
B2: hMAK199-1-h10F7-M11.8 DVD-Ig wt (bispecific antibody, human IgG1, kappa)
heavy: not shown
light: B1 light with S141R, S146I, E170D, F188Y, H206R, L208V, D213E
notes: DVD-Ig; wild-type IgG1, kappa; GS10 linkers; Uncertain; also called HMAK199-1-h10F7-M11.8 HC DVD wt
B3: hMAK199-1-h10F7-M11.8 DVD-Ig (bispecific antibody, human IgG1, kappa, L234A L235A)
heavy: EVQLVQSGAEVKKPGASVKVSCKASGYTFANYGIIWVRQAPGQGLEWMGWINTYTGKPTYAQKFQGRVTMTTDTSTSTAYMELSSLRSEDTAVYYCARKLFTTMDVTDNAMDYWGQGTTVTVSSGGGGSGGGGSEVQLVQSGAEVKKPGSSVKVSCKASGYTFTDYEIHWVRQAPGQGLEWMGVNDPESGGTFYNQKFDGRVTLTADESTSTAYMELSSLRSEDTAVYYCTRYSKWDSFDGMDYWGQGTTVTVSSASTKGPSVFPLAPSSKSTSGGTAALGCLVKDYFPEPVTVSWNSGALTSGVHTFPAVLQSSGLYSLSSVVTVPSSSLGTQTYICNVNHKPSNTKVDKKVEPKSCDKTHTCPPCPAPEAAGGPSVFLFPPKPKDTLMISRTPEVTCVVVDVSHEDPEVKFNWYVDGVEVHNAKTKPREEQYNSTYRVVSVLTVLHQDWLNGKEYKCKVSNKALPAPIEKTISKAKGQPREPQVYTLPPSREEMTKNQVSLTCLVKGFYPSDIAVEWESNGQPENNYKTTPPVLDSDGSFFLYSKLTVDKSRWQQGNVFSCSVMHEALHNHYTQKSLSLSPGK
light: B1 light with S141R, S146I, E170D, F188Y, H206R, L208V, D213E
notes: DVD-Ig; IgG1 234,235 mut, kappa; GS10 linkers; also called HMAK199-1-GS10-H10F7-M11 DVD
B4: hMAK199-1-h10F7-M11.8 QL DVD-Ig (bispecific antibody, human IgG1, kappa, L234A L235A)
heavy: EVQLVQSGAEVKKPGASVKVSCKASGYTFANYGIIWVRQAPGQGLEWMGWINTYTGKPTYAQKFQGRVTMTTDTSTSTAYMELSSLRSEDTAVYYCARKLFTTMDVTDNAMDYWGQGTTVTVSSGGGGSGGGGSEVQLVQSGAEVKKPGSSVKVSCKASGYTFTDYEIHWVRQAPGQGLEWMGVNDPESGGTFYNQKFDGRVTLTADESTSTAYMELSSLRSEDTAVYYCTRYSKWDSFDGMDYWGQGTTVTVSSASTKGPSVFPLAPSSKSTSGGTAALGCLVKDYFPEPVTVSWNSGALTSGVHTFPAVLQSSGLYSLSSVVTVPSSSLGTQTYICNVNHKPSNTKVDKKVEPKSCDKTHTCPPCPAPEAAGGPSVFLFPPKPKDQLMISRTPEVTCVVVDVSHEDPEVKFNWYVDGVEVHNAKTKPREEQYNSTYRVVSVLTVLHQDWLNGKEYKCKVSNKALPAPIEKTISKAKGQPREPQVYTLPPSREEMTKNQVSLTCLVKGFYPSDIAVEWESNGQPENNYKTTPPVLDSDGSFFLYSKLTVDKSRWQQGNVFSCSVLHEALHNHYTQKSLSLSPGK
light: B1 light with S141R, S146I, E170D, F188Y, H206R, L208V, D213E
notes: DVD-Ig; IgG1 (234,235) mut with QL mutations, kappa; GS10 linkers
B5: hMAK199-1-h10F7-M11.8 YTE DVD-Ig (bispecific antibody, human IgG1, kappa, L234A L235A)
heavy: B4 heavy with Q388T, M390Y, S392T, T394E, L566M
light: B1 light with S141R, S146I, E170D, F188Y, H206R, L208V, D213E
notes: DVD-Ig; IgG1 (234,235) mut with YTE mutations, kappa; GS10 linkers
B6: h10F7-M10-hMAk195-24.8 DVD-Ig (bispecific antibody, human IgG1, kappa, L234A L235A)
heavy: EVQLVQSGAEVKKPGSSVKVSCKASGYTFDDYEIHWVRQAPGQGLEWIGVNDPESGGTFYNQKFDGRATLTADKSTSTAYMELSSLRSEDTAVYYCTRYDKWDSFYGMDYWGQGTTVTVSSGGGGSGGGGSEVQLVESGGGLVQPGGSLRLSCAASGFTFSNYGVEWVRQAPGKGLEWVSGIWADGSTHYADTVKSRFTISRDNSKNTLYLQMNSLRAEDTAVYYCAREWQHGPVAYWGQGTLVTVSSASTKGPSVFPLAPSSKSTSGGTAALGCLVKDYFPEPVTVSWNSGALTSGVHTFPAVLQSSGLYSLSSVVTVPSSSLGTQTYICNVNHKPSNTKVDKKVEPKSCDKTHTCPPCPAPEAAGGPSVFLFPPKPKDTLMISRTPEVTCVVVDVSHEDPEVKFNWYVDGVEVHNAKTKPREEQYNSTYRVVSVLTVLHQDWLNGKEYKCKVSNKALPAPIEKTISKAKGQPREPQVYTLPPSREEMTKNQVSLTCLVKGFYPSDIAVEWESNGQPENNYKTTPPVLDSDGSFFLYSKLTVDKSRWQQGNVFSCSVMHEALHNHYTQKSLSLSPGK
light: DIQMTQSPSSLSASVGDRVTITCSASSGSISYIDWFQQKPGKAPKRLIYATFELASGVPSRFSGSGSGTDFTLTISSLQPEDFATYYCHQLGSYPDTFGQGTKLEIKRGGSGGGGSGDIQMTQSPSSLSASVGDRVTITCKASQLVSSAVAWYQQKPGKAPKLLIYWASTLHTGVPSRFSGSGSGTDFTLTISSLQPEDFATYYCQQHYRTPFTFGQGTKLEIKRTVAAPSVFIFPPSDEQLKSGTASVVCLLNNFYPREAKVQWKVDNALQSGNSQESVTEQDSKDSTYSLSSTLTLSKADYEKHKVYACEVTHQGLSSPVTKSFNRGEC
B7: AE11-1 (antibody, V domains shown)
VH: EVQLVQSGAEVKKPGASVKVSCKASGYTFTSYDVNWVRQATGQGLEWMGWMNPNSGNTGYAQKFQGRVTITADESTSTAYMELSSLRSEDTAVYYCAIFDSDYMDVWGKGTLVTVSS
VL: SYELTQPPSVSLSPGQTARITCSGDALPKQYAYWYQQKPGQAPVLVIYKDTERPSGIPERFSGSSSGTTVTLTISGAQAEDEADYYCQSADSSGTSWVFGGGTKLTVL
notes: Fully human anti-TNF antibody isolated by in vitro display; also called AE11-1 VH; AE11-1 VL
B8: AE11-5 (antibody, V domains shown)
VH: EVQLVQSGAEVKKPGSSAKVSCKASGGTFSSYAISWVRQAPGQGLEWMGGIIPILGTANYAQKFLGRVTITADESTSTVYMELSSLRSEDTAVYYCARGLYYDPTRADYWGQGTLVTVSS
VL: DIVMTQSPDFHSVTPKEKVTITCRASQSIGSSLHWYQQKPDQSPKLLIRHASQSISGVPSRFSGSGSGTDFTLTIHSLEAEDAATYYCHQSSSSPPPTFGQGTQVEIK
notes: Fully human anti-TNF antibody isolated by in vitro display; also called AE11-5 VH; AE11-5 VL
B9: TNF-JK1 (antibody, V domains shown)
VH: EVQLVESGGGLVQPGGSLRLSCATSGFTFNNYWMSWVRQAPGKGLEWVANINHDESEKYYVDSAKGRFTISRDNAEKSLFLQMNSLRAEDTAVYYCARIIRGRVGFDYYNYAMDVWGQGTLVTVSS
VL: DIRLTQSPSPLSASVGDRVTITCRASQSIGNYLNWYQHKPGKAPKLLIYAASSLQSGVPSRFSGTGSGTDFTLTISSLQPEDFATYYCQESYSLIFAGGTKVEIK
notes: Fully human anti-TNF antibody isolated by in vitro display; also called TNF-JK1 VH; TNF-JK1 VL
B10: AE11-7 (antibody, V domains shown)
VH: EVQLVQSGAEVKKPGASVKVSCKTSGYSLTQYPIHWVRQAPGQRPEWMGWISPGNGNTKLSPKFQGRVTLSRDASAGTVFMDLSGLTSDDTAVYFCTSVDLGDHWGQGTLVTVSS
VL: DIVMTQSPEFQSVTPKEKVTITCRASQSIGSSLHWYQQKPDQSPKLLINYASQSFSGVPSRFSGGGSGTDFTLTINSLEAEDAATYYCHQSSNLPITFGQGTRLEIK
notes: Fully human anti-TNF antibody isolated by in vitro display; also called AE11-7 VH; AE11-7 VL

Columns and labels:
[1] = target: T1, Human TNF (human, UniProt P01375 77-233); experiment: cell-based or functional assay
[2] = target: T2, Human IL-17A (human, UniProt Q16552 20-155, limits assumed); experiment: ELISA, captured DVD-Ig, biotin-human IL-17 titrated
T2 construct: Biotinylated in the ELISAs; purified recombinant protein in SPR; also called hIL17A; hIL-17
Summary of the method: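 Plate coated with goat anti-mouse IgG-Fc, then antibody captured at 1 μg/ml; serially diluted biotinylated human TNF or IL-17 added 1 h at RT. Bound ligand detected with streptavidin-HRP and TMB, absorbance at 450 nm.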

[3] = target: T1, Human TNF; experiment: ELISA, captured DVD-Ig, biotin-human TNF titrated
Procedure: The following protocol is used to characterize the binding of TNF/IL-17 DVD-Ig proteins to human TNF and IL-17 by enzyme-linked immunosorbent assay (ELISA). An ELISA plate was coated with 50 μl per well of goat anti mouse IgG-Fc at 2 μg/ml, overnight at 4° C. The plate was washed 3 times with PBS/Tween. 50 μl Mab diluted to 1 μg/ml in PBS/0.1% BSA was added to appropriate wells and incubated for 1 hour at room temperature (RT). The plate was washed 3 times with PBS/Tween. 50 μl of serial diluted biotin-human TNF or IL-17 was added to appropriate wells and incubated for 1 hour at RT. The plate was washed 3 times with PBS/Tween. 50 μl of streptavidin-HRP diluted 1:10,000 in PBS/0.1% BSA was added to appropriate wells and incubated for 1 hour at RT. The plate was washed 3 times with PBS/Tween. 50 μl of TMB was added to appropriate wells and the reaction allowed to proceed for 1 minute. The reaction was stopped with 50 μl/well 2N H₂SO₄ and the absorbance read at 450 nm.

[4] = target: T3, Rhesus TNFa (rhesus, UniProt P48094 77-233); experiment: SPR (Biacore T200), DVD-Ig captured by anti-human IgG Fc, antigen in solution
T3 construct: also called Rhesus TNF-alpha
Procedure: (§1) The binding of antibodies to purified recombinant IL-17 and TNFα proteins were determined by surface plasmon resonance-based measurements with a Biacore® T200 instrument (GE Healthcare) using running HBS-EP (10 mM HEPES [pH 7.4], 150 mM NaCl, 3 mM EDTA, and 0.005% surfactant P20) containing 0.1 mg/ml BSA at 25° C. All chemicals were obtained from Biacore® AB (GE Healthcare) or otherwise from a different source as described in the text. Approximately 5000 RU of goat anti-human IgG (Fcγ) fragment specific polyclonal antibody (Pierce Biotechnology Inc, Rockford, Ill.) diluted in 10 mM sodium acetate (pH 4.5) was directly immobilized across a CM5 research grade biosensor chip using a standard amine coupling kit according to manufacturer's instructions and procedures at 25 ug/ml. Unreacted moieties on the biosensor surface were blocked with ethanolamine. Modified carboxymethyl dextran surface in flowcell 2, 3 and 4 were used as a reaction surface. Modified carboxymethyl dextran with goat IgG in flow cell 1 was used as the reference surface. For kinetic analysis, rate equations derived from the 1:1 Langmuir binding model were fitted simultaneously to association and dissociation phases of all six injections (using global fit analysis with local float for Rmax) with the use of Biacore T200 Evaluation software v.1.0. Purified antibodies were diluted in HEPES-buffered saline for capture across goat anti-human IgG specific reaction surfaces. Antibodies to be captured as ligand (1-5 μg/ml) were injected over reaction matrices at a flow rate of 50 μl/minute. Association phase was monitored for 5 minutes, while dissociation phase was monitored for 10-60 minutes to accommodate for slower off-rates. The association and dissociation rate constants, ka (unit M-1 s-1) and kd (unit s-1) were determined under a continuous flow rate of 50 μl/minute. Rate constants were derived by making kinetic binding measurements at six different antigen concentrations ranging from 0.78 nM to 100 nM, depending on the species of IL-17 or TNFα tested. The association ka, dissociation rate kd and equilibrium dissociation constant KD were calculated with the use of the same Biacore T200 Evaluation software v.1.0.

[5] = target: T4, Cynomolgus monkey IL-17A (cynomolgus monkey, UniProt A0A2K5TTB0 24-155); experiment: as above
T4 construct: also called Cyno IL-17AA; Cyno IL17AA
Procedure: as §1

[6] = target: T1, Human TNF; experiment: as above
Procedure: as §1

[7] = target: T2, Human IL-17A; experiment: as above
Procedure: as §1

[8] = target: T1, Human TNF; experiment: in vitro display selection on recombinant human TNF

T4 sequence (A0A2K5TTB0 entry or part of it): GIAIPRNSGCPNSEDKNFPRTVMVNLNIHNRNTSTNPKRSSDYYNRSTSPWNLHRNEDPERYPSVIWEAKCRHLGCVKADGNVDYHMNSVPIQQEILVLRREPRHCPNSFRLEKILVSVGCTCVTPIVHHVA
T3 sequence (P48094 77-233 limits assumed): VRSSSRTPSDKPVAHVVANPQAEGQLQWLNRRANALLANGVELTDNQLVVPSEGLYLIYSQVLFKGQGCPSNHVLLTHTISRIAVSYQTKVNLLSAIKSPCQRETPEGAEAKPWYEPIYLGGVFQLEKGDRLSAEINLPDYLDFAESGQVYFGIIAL
T1 sequence (P01375 77-233 limits assumed): as the sequence (P48094 77-233 limits assumed) above, with T44R, N72T, L138R counted along it
T2 sequence (Q16552 20-155 limits assumed): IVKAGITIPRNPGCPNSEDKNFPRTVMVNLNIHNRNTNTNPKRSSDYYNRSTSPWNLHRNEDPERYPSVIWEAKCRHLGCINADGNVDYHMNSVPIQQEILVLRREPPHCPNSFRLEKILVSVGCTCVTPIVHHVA

Row | Binder | Potency IC50 (nM), L929 bioassay, human TNF [1] | EC50 [2] | EC50 [3] | Kd [7] | koff [7] | kon [7] | binding result [8] | further results
1 | B1 | 0.037 nM | 0.081 nM | 0.22 nM |  |  |  |  | 
2 | B2 | 0.033 nM | 0.088 nM | 0.095 nM | 0.0257 nM | 7.9e-06 s⁻¹ | 307000 M⁻¹ s⁻¹ |  | Kd [4]: 0.0137 nM; koff [4]: 3.03e-05 s⁻¹; kon [4]: 2.2e+06 M⁻¹ s⁻¹; Kd [5]: 0.00444 nM; koff [5]: 1.18e-06 s⁻¹; kon [5]: 267000 M⁻¹ s⁻¹; Kd [6]: 0.00561 nM; koff [6]: 2.4e-05 s⁻¹; kon [6]: 4.28e+06 M⁻¹ s⁻¹
3 | B3 | 0.031 nM | 0.078 nM | 0.22 nM | 0.0337 nM | 1.11e-05 s⁻¹ | 329000 M⁻¹ s⁻¹ |  | Kd [4]: 0.0108 nM; koff [4]: 2.39e-05 s⁻¹; kon [4]: 2.21e+06 M⁻¹ s⁻¹; Kd [5]: 0.00722 nM; koff [5]: 2.15e-06 s⁻¹; kon [5]: 299000 M⁻¹ s⁻¹; Kd [6]: 0.0055 nM; koff [6]: 2.37e-05 s⁻¹; kon [6]: 4.31e+06 M⁻¹ s⁻¹
4 | B4 | 0.027 nM | 0.142 nM | 0.119 nM | < 0.00452 nM | < 1e-06 s⁻¹ | 221000 M⁻¹ s⁻¹ |  | 
5 | B5 |  | 0.05 nM | 0.1 nM |  |  |  |  | 
6 | B6 | 2.56 nM |  |  |  |  |  |  | 
7 | B7 |  |  |  |  |  |  | binds | 
8 | B8 |  |  |  |  |  |  | binds | 
9 | B9 |  |  |  |  |  |  | binds | 
10 | B10 |  |  |  |  |  |  | binds | 
